The experiment deals with T1, 3 × FLAG-aPKC (atypical protein kinase C subtype iota, PKCι), wild type, full length (Homo sapiens (Human), UniProt P41743).
T1 chain: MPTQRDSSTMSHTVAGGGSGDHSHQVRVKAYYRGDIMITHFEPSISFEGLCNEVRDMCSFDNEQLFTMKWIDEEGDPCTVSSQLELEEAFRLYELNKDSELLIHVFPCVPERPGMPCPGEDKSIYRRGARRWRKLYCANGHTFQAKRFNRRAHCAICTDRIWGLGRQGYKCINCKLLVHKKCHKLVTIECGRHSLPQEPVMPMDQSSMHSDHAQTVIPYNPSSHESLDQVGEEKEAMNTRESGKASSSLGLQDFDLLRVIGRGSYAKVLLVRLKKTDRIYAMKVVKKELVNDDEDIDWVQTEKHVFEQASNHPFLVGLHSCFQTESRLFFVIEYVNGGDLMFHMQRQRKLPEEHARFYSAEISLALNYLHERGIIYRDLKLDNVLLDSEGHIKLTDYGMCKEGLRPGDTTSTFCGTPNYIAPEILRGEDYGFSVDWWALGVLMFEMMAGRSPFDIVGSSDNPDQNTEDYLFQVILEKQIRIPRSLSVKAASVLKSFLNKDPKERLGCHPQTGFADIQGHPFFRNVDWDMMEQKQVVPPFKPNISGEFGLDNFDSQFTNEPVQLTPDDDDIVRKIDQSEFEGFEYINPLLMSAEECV
Put plainly: co-expression, FLAG co-purification, SEC and glycerol gradient.

B1: PAR6 (PAR6α), untagged, full length (protein)
chain: MARPQRTPARSPDSIVEVKSKFDAEFRRFALPRASVSGFQEFSRLLRAVHQIPGLDVLLGYTDAHGDLLPLTNDDSLHRALASGPPPLRLLVQKREADSSGLAFASNSLQRRKKGLLLRPVAPLRTRPPLLISLPQDFRQVSSVIDVDLLPETHRRVRLHKHGSDRPLGFYIRDGMSVRVAPQGLERVPGIFISRLVRGGLAESTGLLAVSDEILEVNGIEVAGKTLDQVTDMMVANSHNLIVTVKPANQRNNVVRGASGRLTGPPSAGPGPAEPDSDDDSSDLVIENRQPPSSNGLSQGPPCWDLHPGCRHPGTRSSLPSLDDQEQASSGWGSRIRGDGSGFSL
As to B1, the binding result is “binds”.
